Assay results: the DeepSol protein solubility set

Assay: soluble on expression in E. coli; label from the status in PepcDB or PDB records
With “MFSRVRVSAPSHVHAGNYDIEGSIGRLYGTVGLALGEPRLTLEASPSHSVEVEGGSRRREAEDLARLYLDKVGSRGCRLEGVKIRIYEEIPAHVGLGSTTALALSIGSSIYRICGLEPLDLRELAVTAGRSLVSALGLYSFEQGGLIVDGGFVRGERRPPPLVFRAHVPGSVKVVVALPERPIAKILDIKRREDELLARMPPMDPSMAGWASRVVLLGIMANAAEGRWGEAARWMGEFNRRLGEYWAGEQGGIYCCSEVEEIVRAMVDAGAWSGLQSSWGPTVYGLTPARRAASVLEAARRAVERVGGGKVWVTSVDNVGAVISSF” the “soluble on expression in E. coli” value was “not soluble”.
In the case of “MWNETVEHENAGNGWAAGESSFMTDRKPDSKATTLGERLPVPVTISNLIEHFSAQDDKYVVGTFRFATVLTVGIVKDISQDGTTYTYDLCDPNNTEMEYRTLKYDNEGSTFDHSSIVEGTRVRAIGKLKGFDGNNTIMLFNITPVEDDKDFTIFELEAEAARLFFQKNVSEKLKSVDSDGFQGMLAPPKSRMSQTSHQSSQGSDTKERLYAQPQKVMTGANQGDVLRERITAVLMAVPEGSRDEGRHVSWIAEQIQETNISIVRKCVGEMVENGLVYTTVDEETVSAI”, the “soluble on expression in E. coli” value is reported as “not soluble”.
For “MAHHHHHHMAPPQTTLSLDANLRNTLRSLLIERLCSPTQPLPAKQLYDELTNRSRLVEEFHFSKTSRRITRQRLALQFLRRYNVLLHGLFFYSEGTRTWNTTTEFHRLAILGESVLLTEVRTRLLKLFPVMPYAAYVQSLPHMVGEEALAAAFDRYEMQNIVGAKPSNQRSGTPLTRMQKSHMLCAIVAEMYWFTARTKPTDLTHNNALFPPSDVLILHVLSTHLLENLPAELIYNVVEPIVADIKRVWVNEPMSLPSQLRLTPRTVGALSLNAVPVDLRYTAKEDAVMSLQKKHEEAHRRQHALTREPDHSCVKSFMRPSCNYRIFDGPRYQILSSDNRVAPLPLAQERSSLPASAVCTVVDDADSAARAMELAKMAEQW”, the “soluble on expression in E. coli” value was “not soluble”.
With “MLALMDADGNIAWSGEYDEWGNQLNEENPHHLHQPYRLPGQQYDKESGLYYNRNRYYDPLQGRYITQDPIGLEGGWSLYAYPLNPVNGIDPLGLSPADVALIRRKDQLNHQRAWDILSDTYEDMKRLNLGGTDQFFHCMAFCRVSKLNDAGVSRSAKGLGYEKEIRDYGLNLFGMYGRKVKLSHSEMIEDNKKDLAVNDHGLTCPSTTDCSDRCSDYINPEHKKTIKALQDAGYLKLEHHHHHH” the “soluble on expression in E. coli” value was “not soluble”.
In the case of “MNVYTFDFNDIKNQSDFYREFTQTFGLASEKVSDLDTLWDAVMSDILPLPLEIEFVHLPDKLRRRYGALILLFDEAEEELEGRLRFNVRH”, the “soluble on expression in E. coli” value is reported as “not soluble”.
With “MAVKFFGQFLVEKGVVSRETLLQAIELQESVNLSFGATSLAMGILTEADIERIHNAQRIEDLRFGDMAVKLGLLTSEQMMQVLTRQKNTHLYIGEALVKVGSFQADELPKYLEEFKADQAQYATDTVVIPTGVSEPKIWEMVADLSYKMLTRVALLVFRPEPCFVADRVPAMDVYATMDFTGDISGRYFMGVTAATQKKIAKAILKEPNVDNEPKEILDDTVMEFVNVALGNIAAKAAQSGKSMEIAPPEIIEAPDGIQVPDGHKALCFPVCLSDGDRIELAVFIQQLEHHHHHH” the “soluble on expression in E. coli” value was “soluble”.
With “MSTGITYDEDRKTQLIAQYESVREVVNAEAKNVHVNENASKILLLVVSKLKPASDIQILYDHGVREFGENYVQELIEKAKLLPDDIKWHFIGGLQTNKCKDLAKVPNLYSVETIDSLKKAKKLNESRAKFQPDCNPILCNVQINTSHEDQKSGLNNEAEIFEVIDFFLSEECKYIKLNGLMTIGSWNVSHEDSKENRDFATLVEWKKKIDAKFGTSLKLSMGMSADFREAIRQGTAEVRIGTDIFGARPPKNEARII” the “soluble on expression in E. coli” value was “soluble”.
With “MPQPESENLSVKLFKNHKQALETSGLVPYLPSSLEQLEQSGRTWYRELRRPQWIWQGVDAIELESILARIANSQKHRSRDEWLDTVSGYHSGNWAYEWIHAGMEHQKTASELDGDEAAEAYFKASLYFSVAGYPHIKGDNLAIQSQVLASQAYDMAAKQTSHRVEKILVPYQGRKITCYLHLPNTEKPLPVVIVSGGMDSLQTDMWRLYRDFLAPNNMAMLTLDMPSIGHSSHWPLSEDSSCLHQAVLNYLPNIPWVDRFHAAVMGFRFGGNVALRLSFLEPSRLKACVALGAPVHQILTNSARLKTMPKMYLDVLASRLAKQVVDINSLTSQMQAWSLKNQGFLSGGRKTSVSVLAIGLKDDPVSPKSDNKLAALFSKYGKGVELNSKTLHSGYEEALKQMIEWIKEEMKQ” the “soluble on expression in E. coli” value was “not soluble”.
For “MCGKTILLEVTPCDNFVFNKSTNLTDTAYVTLKNISEKPVCFKVKTSVPNMYVSRPNPDLLKPGEARQLSVKFRSSDKVSLNAKSYKLKIESCEFESEDIDDLKSFWSSIPNEKILVHKSPIILGTGSSPDFRNDQIASESSRQSSPIQNVSDDGKSSHHSTAKQLQENNENSKSLKYTKQLVEVPLGENQQADQTGTTCDKKDEFQKKNQLEVEIKFVDKIHEIKSQLEDSFELKLKEMEMRLEEKFEKRISRLTQFMETISLSNSPGNSRRVFELDDNFSIVAKKELEQMRQDFEKVLDGQNKIAEEKMNELRKRREELQV”, the “soluble on expression in E. coli” value was “not soluble”.
For “MSDDPIAASQAVVLSQAQAQNSQYALARTFATQKVSLEESVLSQVTTAIQTAQEKIVYAGNGTLSDDDRASLATDLQGIRDQLMNLANSTDGNGRYIFAGYKTEAAPFDQATGGYHGGEKSVTQQVDSARTMVIGHTGAQIFNSITSNAVPEPDGSDSEKNLFVMLDTAIAALKTPVEGNNVEKEKAAAAIDKTNRGLKNSLNNVLTVRAELGTQLSELSTLDSLGSDRALGQKLQMSNLVDVDWNSV”, the “soluble on expression in E. coli” value was “soluble”.
With “MKLRRSMLFVPGSNAAMLSNSFIYKPDSIMFDLEDAVALKEKDSARLLVAHALQHPLYKEIETVVRVNPLDSEFGLLDLNSVVRAGVDVVRMPKTESAQDVLDMDHAITEIEKACGREAGSTKMLAAIESPLGITQANQIAFASKRLIGIALGAEDYVRNLKTERSPEGIELLFARCSILQAARAAGIQAFDTVYSNANNEEGFLKEAALIKQLGFDGKSLINPRQIELLHNLFAPTQKDVEQAKRIIEAAVEAERQGAGVVSLNGKMIDAPIIDRAKLVLERAKSGIREELEHHHHHH” the “soluble on expression in E. coli” value was “soluble”.
With “MASTQCVNIQKRDIIRGASDVSWFDVLLEKGACVTISAQDKPSVDLWLDDVIQESLIEGRHYCTKASTSDLKADARCPTQGEATMREEYLDGYVCKRSFSDRGWGNGCGLFGKGSIVGCAKATCGANDIIKSYSYDSPKVKYVIGAEVHQGKLLTNNSTDRIVKTTFTAESEKHTITIADYGSMDFTCRVVASAELSNIRMIELDGHMFNVHEDWLSDLPLPSKISGGSWHGMDRLVVFKEPHAVKMEIQACGDQRPAVFKSLVKAEEVTKTSNSYHLTGGHVDCRVSTLNLRMKGLTYQMCSSSFVWHKRPVATQHGTVAMEVKYKGSDAPCRIPVSVEKEGYNGKNFGNLITANPFAANNEAVVFLELEAPLGVSTIKVGGAVFQWKQEGSSIGKALEHHHHHH” the “soluble on expression in E. coli” value was “not soluble”.
In the case of “MKDFVKGRKIYTRTYNKCDPSLVVVERAKRRLGETKYNPFYNNCEHFARYCKVGIPISDQVENYKSLVGNSGIDASDALLNNGKSIVDTTQNLMKTTLDKISNFWKNDNDDDDGFFEYYLEHHHHHH”, the “soluble on expression in E. coli” value is reported as “not soluble”.
With “MSSRVPILKVDDYWVVAIEETLHDQSVIQFKEELLHNITGVAGKGLVIDISALEVVDSFVTRVLIEISRLAELLGLPFVLTGIKPAVAITLTEMGLDLRGMATALNLQKGLDKLKNLARMEQR” the “soluble on expression in E. coli” value was “soluble”.
For “MAKHAPQLPIEVDSETGVWTTDALPMLYVPRHFFVNNHMGIEEVLGADAYAEILYKAGYKSAWHWCEKEAECHGLEGVAVFEHYMKRLSQRGWGLFEIERINLEEGTAEVRLRHSAFVYVYGKVNRKVDYMFTGWFAGAMDQILAARGSSLRTVAEQVYSGAEDGHEDGLFVVKPL”, the “soluble on expression in E. coli” value was “soluble”.
In the case of “GHHHHHHLEKCVFVTVGTTSFDDLIACVSAPDSLQKIESLGYNRLILQIGRGTVVPEPFSTESFTLDVYRYKDSLKEDIQKADLVISHAGAGSCLETLEKGKPLVVVINEKLMNNHQLELAKQLHKEGHLFYCTCSTLPGLLQSMDLSTLKCYPPGQPEKFSAFLDKVVGLQK”, the “soluble on expression in E. coli” value is reported as “not soluble”.
With “MAPRSYWKGYLKLSLVTCPVTLMPATSEAERVRFRTLNGRTGHPVVSRYLDAETGDVVDDDDQVKGYPRSETEHVILEEEELDAVALESARTIDIDCFVPSDEIAWIWYDRPHYLMPADPIGEEAFAVIREAMRATDRSGVARLVLGGRERAVLLMPRGEGIILWTLRYGDEVRPEEAYFGDLAAGKPDPKALTLVKRLIEERTRTWEPGMVEDPVQENLLELIRSKKPKKRSRKAGAKAPKGGDNVVSIMDALRKSIEGKG” the “soluble on expression in E. coli” value was “not soluble”.
With “MSLALIVHKYGGTSVGSPERIKNVAKRVAKARAEGHDIVVVVSAMSGETNRLVALAHEMQEHPDPRELDVVLATGEQVTIGLLAMALKDIGVDAKSYTGWQVALKTDTAHTKARIESIDDEKMRADLTAGKVVIVAGFQGISSEGDISTLGRGGSDTSAVALAAALKADECQIYTDVDGVYTTDPRVVPEARRMDTVTFEEMIELASLGSKVLQIRSVEFAGKYKVRLRVLSSLQDGGNGTLITFEEDDNMERAAVTGIAFDKNQARINVRGVPDKPGVAYQILGAVADANIEVDMIIQNVGSEGTTDFSFTVPRGDYKQTLEILSERQDSIGAASIDGDDTVCKVSAVGLGMRSHVGVAAKIFRTLAEEGINIQMISTSEIKVSVLIDEKYMELATRVLHKAFNLGEGHHHHHH” the “soluble on expression in E. coli” value was “soluble”.
With “MGSDKIHHHHHHMSQHVLIAGGGIVGCLTAMELVSRGCRVTIVERNNIASQTSGESSWAGTGIMFPLLPWMYSDHVNTLTHYGASLYPDICARLFKETGIDPQMLDSGFLLLPPFDREAALTWCARYQVKAEDTKAAGFGVQSPNGQDALWLPDVKQVRPPCLMHALRTWLENHHVRLLERTELMPLSPGTSRLTAWATTSGELLEADRFIVTSGAWSFELLKEVASKLQIKPMRGQILLYKPEHNPRAVIFREDFYLVPRRDGYLLAGSTLEDVGFDPSVTDTVRDAIRAKAAALMPELADLPILKHWSGLRPGTPENLPIISPHPGIENLYLNTGHFRYGLTMGPASASLAAALVCGETPWTDPTPFSLPQ” the “soluble on expression in E. coli” value was “not soluble”.
For “MLLHLPNGDVLCVWFGGTQEGIADISIYMSRLVKDSGSWSKAAKLSEDATRSEQNPVLFLAPDNVLWLLYTAQKSGNQDTAIVRYRQSTDLGATWGEIGTLLDQPGTFIRQPITVLENGDWLLPVFYCRVQPGEKWVGNDDDSAVKISSDQGKTWREYPVPNSTGCVHMNITPLQDGTLLALYRSRWADFIYQSRSTDGGKTWSEPVATDLPNNNSSIQVTTLKNGHLALVFNHMSAADATDRRLSLYDELEHHHHHH”, the “soluble on expression in E. coli” value was “soluble”.
In the case of “MKGLILAAGRGTRLRPLTHTRPKPAIRVAGRPIIHYAVENLLEAGVREIGVVVSPETERDLKVALEGYPVRYVLQEEPQGLAHAVDVARGFLGESPFVLYLGDNLFQKGIRRFLEAFKPGVSAVIALVRVEDPRQFGVAVLEGNRVVRLLEKPKDPPSDLAVAGVYVFSPEVLEVVRGLKPSARGEYEITDAIQGLIDRGKTVVGVEVEGWWKDTGRHQDLLDANRLLLEELTPKVEGDVVESQLTGRVVVEKGAKVVRSTVIGPAHIGAGAVVEEAFVGPFTSVGPRARVVRSEVEYSLLEEEAVVEEVRLRLQECILGVRAEVKSRDGLPRAHRLILGDLSQVELA”, the “soluble on expression in E. coli” value is reported as “soluble”.
With “KPEWMMIHRILNHSVDKKGHVHYLIKWRDLPYDQASWESEDVEIQDYDLFKQSYWNH” the “soluble on expression in E. coli” value was “soluble”.
